Test results: patent publication US9074002B2, “PTP1B inhibitors” (Cold Spring Harbor Laboratory, priority 2009, dated 2015)

Assays:
Type in all cases: cell-based
[1] = test system: tyrosine phosphorylation of insulin receptor β (IRβ) and insulin receptor substrate-1 (IRS-1) in 293T cells; assay: Insulin signaling in 293T cells expressing intrabody: tyrosine phosphorylation of IRβ and IRS-1
Excerpt: In order to validate this approach further, Applicant tested the effects of expressing one of these (scFv45) as a single chain antibody fragment “intrabody” to PTP1B, using 293T cells as a convenient expression system. This intrabody was expressed transiently and then tested for effects on insulin signaling, focusing initially on the tyrosine phosphorylation status of the β-subunit of the insulin receptor and IRS-1 (FIG. 2). Initial indications are that for both substrates expression of the intrabody had no impact on the basal level of tyrosyl phosphorylation, but it enhanced and extended the time course of insulin-induced phosphorylation, consistent with our proposed mechanism of action.
Intrabody scFv45 was transfected in 293T cells, serum starved and insulin stimulated to investigate the physiological relevance of this intrabody expression in mammalian cells in the context of PTP1B mediated regulation of insulin signaling (or insulin signaling mediated redox regulation of PTP1B activity). Insulin stimulated 293T cells with or without the intrabody were harvested in RIPA buffer (25 mM HEPES, pH 7.5, 150 mM NaCl, 0.25% Deoxychloate, 10% Glycerol, 25 mM NaF, 10 mM MgCl2, 1 mM EDTA, 1% TritonX-100, 0.5 mM PMSF, 10 mM Benzamidine, protease inhibitor cocktail, 1 mM sodium vanadate) and the cell lysates were examined for total tyrosine phosphosphorylation pattern using phospho-tyrosine specific antibodies (FIGS. 3 and 4).

[2] = test system: phosphorylation of AKT activation loop at Threonine 308 (T308); assay: AKT phosphorylation (T308) after insulin stimulation in cells overexpressing scFv45; details: cells overexpressing scFv45, insulin stimulated for different time periods; FIG. 13
Excerpt: Applicant assessed the role of PTP1B-OX specific intrabody on the downstream readout of insulin signaling by following the phosphorylation (activation) status of AKT.

[3] = test system: endogenous PTP1B in Cos1 cells; assay: Colocalization of intrabody45 and PTP1B in Cos1 cells by immunofluorescence; details: FIG. 14
Description: In order to verify the interaction between PTP1B-OX and scFv45 in mammalian cells, Applicant determined whether PTP and scFv45 colocalized after insulin stimulation, using immunofluorescence. Cos1 cells were grown on cover slips and transfected with scFv45 using Fugene6 as the transfection reagent according to manufacturer's instructions. The cells were serum starved 24 hours post transfection, for 16 hours at 37° C. and then stimulated with 25 nM insulin (in growth medium without serum) or left untreated. Following insulin treatment the cells were washed 2× with PBS and fixed with 5% formalin (in PBS) for 15 minutes at room temperature. The cells were washed with PBS three times at room temperature. The fixed cells were permeabilized with 0.5% Triton-X100 (in PBS) for 5 minutes at room temperature. Cells were rinsed with Wash Buffer [PBS, pH 7.4 with 0.1% BSA, 0.2% TritonX-100, 0.05% Tween-20 and 0.05% sodium azide] at room temperature. […] To quantify colocalization of PTP1B and intrabody45 from the merged images, 15 individual images were analyzed by Zeiss (LSM 710) Colocalization Viewer Software. The degree of colocalization of PTP1B and intrabody45 in each cell was expressed as colocalization coefficients that measure relative number of colocalizing pixels for the respective fluorophores for PTP1B and intrabody45, as compared to the total number of pixels. […]

B1: scFv45: conformation-sensor scFv binding PTP1B-OX, SEQ ID NO: 26 and 78; expressed as intrabody (protein)
scFv: MKKTAIAIAVALAGFATVAQAALTQPSSVSANPGGTVKITCSGSSSAYGYGWYQQKSPGSAPVTVIYNNNKRPSNIPSRFSGSKSGSTGTLTITGVQAEDEAVYFCGSEDSSTDAIFGAGTTLTVLGQSSRSSTVTLDESGGGLQAPGGALSLVCKASGFTFSSYDMGWIRQAPGKGLEYVAGITDNGRYASYGSAVDGRATISRDNGQSSVRLQLNNLRAEDTGTYYCARDDGSGWTGNSIDAWGHGTEVIVSSTSGQAGQHHHHHHGAYPYDVPDYAS
basal level of tyrosyl phosphorylation of insulin receptor β-subunit and IRS-1 ([1]; 293T cells expressing intrabody, no insulin): no impact
tyrosine phosphorylation of insulin receptor β (IRβ) ([1]; 293T cells overexpressing intrabody, insulin stimulated, FIG. 3): increased and prolonged tyrosine phosphorylation
tyrosine phosphorylation of insulin receptor substrate-1 (IRS-1) ([1]; 293T cells overexpressing intrabody, insulin stimulated, FIG. 4): increased and prolonged tyrosine phosphorylation
AKT phosphorylation at residue Threonine 308 (T308) [2]: enhanced and sustained AKT phosphorylation
colocalization between PTP1B and intrabody ([3]; Cos1 cells without insulin stimulation): not significant
colocalization between PTP1B and intrabody ([3]; Cos1 cells, stimulated with 25 nM insulin): Strong colocalization
